Experimental data reported in the RNAGym collection of RNA variant scans (doi:10.1073/pnas.2313332121).

B1: TPR t1 (parent)
chain: GACCAAUCUGCCCUCAGAGCUCGAGAACAUCUUCGGAUGCAGAGGAGGCAGGCUUCGGUGGCGCGAUAGCGCCAACGUCCUCAACCUCCAAUGCAUCCCACCACAUGAUGAUGCCUGAAGAGCCUUGGUUUUUUG

Variants of: B1
Assay: polymerase ribozyme fitness, log enrichment relative to wild type (log ratio); higher = more active; in vitro selection for triplet polymerase activity
Procedure, shortened: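 A single round of triplicate in vitro selection, including frozen incubation at −7 °C, was applied to PCR-built, transcribed mutant libraries of each subunit of a heterodimeric triplet polymerase ribozyme. Illumina sequencing of input and output libraries retained genotypes with ≥10 input reads and ≥1 read per output. Fitness is the base-2 logarithm of genotype enrichment divided by wild-type enrichment, from inverse-variance-weighted replicate averages.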

Variant	polymerase ribozyme fitness (log ratio)
C8A C40U C53A	0.276
C8A U54G A111U U116G A119U U130G	-7.62
U7G C8U A29U C40A G48A	-2.66
C8A C28G U96A	-3.08
C8G G107U C123G	-2.76
U7G A29U G42A C53U C62U	-3.19
C8G A108G	-0.714
C8G G57A G117A A119U G135U	-2.27
U7G C88U A119G	1.51
C8A C79U C88G C102U	-2.19
C8A C11G A103C A119U G120A	-3.31
U7G C22G A24G G48U	-5.74
C8G G71A C72A C102A	-3.77
C8G C13A	0.587
C8G C13G	0.865
C8G G63A	-0.627
C8G G39C C62A	-0.386
C8A G47U C49U G110U	-3.49
C8G G35A	-2.23
C8G C34G C88U U112C G113A	-6.08
C8G G36C A84U C115U G122U	-1.01

Variant	polymerase ribozyme fitness (log ratio)
U7G C124A	1.74
U7C G61A U81G U116G C124A	-2.26
C8A A29U G63A C88U A91U C123U	-3.81
C8G C102A	-1.02
U7G C22G G117U U130C	-2.69
C8G G35C A50U A118U	-5.01
U7G C34U G69U C102U U106A	-0.632
C8G G10U A16C G77U U81A C85A	-3.62
C8A C20G G45U C73U C123G	-5.63
U7G G77A A83C	0.167
C8A U129A	-0.0105
C8A C86G C102U C104U G110A	-4.28
C8G U14G G36U C62U C80U G120A	0.635
C8A C123A C124U G127U	0.694
U7C U112C G113U G135A	-3.06
C8G G10A C20U A24U C49U G61A C80G G120U	-7.85
U7G G45C G47A U59C	-1.08
C8A U67C	-3.31
C8A C40U G61U U78A C80G A100C	-6.33
C8A A16U G120U U130G	1.06
C8A A84G	0.231

Variant	polymerase ribozyme fitness (log ratio)
C8A G61A U131C	0.52
C8A C31A U129C	-5.73
U7G C8U C70G	-1.52
U7G U96C	-0.0298
C8A C28A G45A C56G G69U	-2.82
C8A U9G U21G	-1.13
C8A G47U U78G U81G	-4.17
C8G A24G C72G C97G C115G	-4.32
C8A G69U	0.656
C8G A16U A90U	-0.236
C8A C13U C49G	0.151
U7C U14G G48U C70G	-5.7
C8G C34U C70A G117A U126A	-6.92
U7G C80U	0.145
C8G C15U A18C C53A U55A C56G	-1.96
U7C U59A A83G U96C	-1.25
C8A C15U A46U A118G	-1.21
C8A G61U C98A	-3.46
C8G G10A C12U G35A A66C C72G A121U G122C U130C	-7.42
U7G G60U	-0.565
C8G A75G C88A C124U	1.57

Variant	polymerase ribozyme fitness (log ratio)
C8A C12A G61C G69U G120A U129G	-1.45
C8A C13G G60C A90U U109G A119U	-6.32
U7G G71U C97G G120U U132C	-3.27
C8G C70G	-1.84
C8A C72U U133A	-0.145
U7G G52A U106C G122U U131G	-0.951
C8G A91U	-1.17
U7G G47A C56A C70G	-5.1
C8A C12A C70U G77C U92A G127U U130G U131A	-6.59
C8A A27G C56G U59G G113U	-4.68
U7G U9A G120C	1.99
C8A G51C C53A C88A C114A	-5.74
C8A A26G C56G C115U	-1.74
C8A C49A G61A	0.627
C8A C53A	0.281
C8G G48A G128U	-2.01
C8G A27U C89G	-4.7
C8A C62U	0.19
C8G G10A	0.258
C8A A111C	0.0486
